# According to a protein production outcome set (Wang et al. 2014):
# Test: label from the status in PepcDB records
row,Sequence,protein production
1,MVETLGAIAPVFLIILVGFLLRRWKVLSDGFWLPAEKLTYFITFPALLAANLAGADLRGVAWAPVAAVSVGGIFLIAALMLAARSLLARRLAIGDPAFTSVFQGAIRPNTYIGLALATVLFGPFGVTLMALCIAIVVPLVNVLAVACMVRFGHGQSASLSAMARGIATNPLILACLVGIAMNIGGLGLPPVLGPALTILGSAALPIGLLAVGAGLSGVGLRRAAPALLVSSAAKLVLLPGLTLIGALALGMDAPTTALCVLYAALPCSQSSYVLARQMGGDATLMATAITVQTLLSGLSIPVFVLALV,failed
2,MVEVTIWLAFFAGVVSFLSPCVFPLVPVYLAQLTGTQISGNEITADRKLILMRSLGFILGFTSIFIFLGASSTFIGQLFWGNRQLFEQIGGIIITVFGLQMMGVISIRMLLSEKRLQAKPRQSASFANSVLIGFLFATGWTPCIGLVLGAILVLAGDANTMWSGMSMLFVYSMGLAIPFFLVALLWSRSLHKVRKLNKWLPTIQKGSGVVMVALGVLLFTGQFSTIAAYLARINPFGI,failed
3,MVFGPGLCIAHRGTIVVNKGARVGENCRIHACTNIGSGRDNIFLAPKIGNGVYIGPGAKIFGSVEIADNIAIGANSVVNRSFYERGISIAGVPAKKISNKGSDGMVIAATKTVSVPVSQETILEHHHHHH,failed
4,MVFLIVPILTILGLSIHEAIGTSLACIAISSFSSAYTHLKKGKVHIKVVILKELFSIPAAVLGAYLTNDINEKILRVAFSMLLFYLAVRLTVKRRAKDSKEAKIHYERVPLVGVASGFLSGLLGISGGILNVPLFTIFVGIPIKYSIGTSSLALFFTALAGAITHLKEGNVVLSIALALAPGLIVGAYVGAIVSHRIHSDKLRVLFSALLLIIGVRMLV,failed
5,MVFSMHDKGETQENPADMSGRLNTPISTVFHFFSSLFHDALRSVAQWSAWKKIAVSVVIVAIISVTFLVDVPPISVYRDWANNAGDAFVLVFCAFYILITQFPIPRTVLTLASGVLFGPVLGSVVALGSTTVSAVISLLIVRGLLGDWMAPRLTHPAVSRINTRLEQRGWLAITSLRMIAAIPFSILNYVAALTSVPVFSFAIATLIGSAPGTIVTVVLGDAVTGSGNWTAVAFTVFLAILGVLGIFLDQKMPVKPGK,failed
6,MVFSNSLLSSTTSLTTWANQSSSQSSLSPRYSTWQCVCLRNQKRKPKLYLIPARHFLSTPIDSVSSSSITASRYATSGVSEVQRSTSSNNVTEMEEFEMELQELFNEVKSMVKIGKESDAMDLLRANYVAVKEELDSGLKGIEQAAVLDIIALGYMAVGDLKPVPALLDMINKIVDNLKDSEPLLDSVLMHVGSMYSVIGKFENAILVHQRAIRILENRYGKCNTLLVTPLLGMAKSFASDGKATKAIGVYERTLTILERNRGSESEDLVVPLFSLGKLLLKEGKAAEAEIPFTSIVNIYKKIYGERDGRVGMAMCSLANAKCSKGDANEAVDIYRNALRIIKDSNYMTIDNSILENMRIDLAELLHFVGRGDEGRELLEECLLINERFKGKNHPSMATHLINLAASYSRSKNYVEAERLLRTCLNIMEVSVGSEGQSITFPMLNLAVTLSQLNRDEEAEQIALKVLRIREKAFGEDSLPVGEALDCLVSIQARLGRDDGEILGLLKRVMMIQEKEFGPSAQELIVTLQKIIHFLEKLEMKDDKFKFRRRLALLRERYKQSLSY,failed
7,MVGINTDTENISELLKTYWSIQRISAGYADQNAASLGLTIQQLAMINVIYSTPGISVADLTKRLIITGSSAAANVDGLISLGLVVKLNKTIPNDSMDLTLKLSKKGEDLSKRSTANAFMYKAMMKVFENLTENEIEELIRLNKKVETLLKKSK,not failed
8,MVGLADVAVLYSGGKDSNYALYWALKSGLRVRYLVSMVSENEESYMYHTPNVELTSLQARALGIPIIKGFTKGEKEKEVEDLKNVLEGLKVDGIVAGALASRYQKERIENVARELGLKVYTPAWEKDPYQYMLEIIKLGFKVVFVAVSAYGLNESWLGRELNYKNLEELKKLSEKYGIHIAGEGGEFETFVLDMPFFKAKIVIDDAEKFWDGLSGKFIIKRAHLEWK,not failed
9,MVGQREPAPVEEVKPAPEQPAEPQQPVPTVPSVPTIPQQPGPIEHEDQTAPPAPHIRHYDWNGAMQPMVSKMLGADGVTAGSVLLVDSVNNRTNGSLNAAEATETLRNALANNGKFTLVSAQQLSMAKQQLGLSPQDSLGTRSKAIGIARNVGAHYVLYSSASGNVNAPTLQMQLMLVQTGEIIWSGKGAVSQQLEHHHHHH,not failed
